According to patent US20240083999A1 (TRUSTEES OF TUFTS COLLEGE, published 2024):

T1: mouse interleukin 6 (mIL-6) (mouse, UniProt P08505 25-211)
T1 construct: the whole entry is named; also called mouse IL-6; mouse IL6
T1 sequence: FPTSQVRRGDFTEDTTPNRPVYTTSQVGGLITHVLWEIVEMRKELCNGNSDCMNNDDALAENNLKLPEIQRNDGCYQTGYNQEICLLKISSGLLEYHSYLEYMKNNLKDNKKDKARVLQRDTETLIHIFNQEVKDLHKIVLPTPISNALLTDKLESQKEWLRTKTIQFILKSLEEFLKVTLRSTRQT


Tests used:
[1] = molecular target: T1, mouse interleukin 6 (mIL-6); experiment: told from an in vivo STAT3 phosphorylation Western blot (FIG. 7), not a direct binding assay
Procedure: Experiments were conducted to determine whether the representative anti-hIL-6 VHH antibody cross-reacted with mouse IL-6 in vivo. In this experiment, one group of C57BL/6 mice was injected intraperitoneally with 1 μg of mouse IL-6 (mIL-6) in PBS; another group of C57BL/6 mice was injected with 1 μg of mouse IL-6 (mIL-6) plus 0.4 μg anti-hIL-6 VHH antibody. The animals were euthanized 30 minutes post-injection; their livers were isolated; and protein was extracted. Western blot analyses were carried out to assess the phosphorylation of STAT3 using P-STAT3 Y705 antibody (1:1,000 dilution) and STAT3 antibody (1:2,000 dilution), (Cell Signaling Technology (CST), Danvers, MA). The results of the Western blot analysis to assess the cross-reactivity of the anti-hIL-6 VHH antibody in mIL-6-induced hepatic STAT activation are shown in FIG. 7.

[2] = molecular target: T2, human interleukin 6 (hIL-6) (human, UniProt P05231 30-212); experiment: cell-based or functional assay
[3] = molecular target: T2, human interleukin 6 (hIL-6); experiment: dilution ELISA, plate-coated hIL-6
Source text: Based on sequence analysis, five clonally-independent families of the anti-hIL-6 VHHs, i.e., having sequence homology derived from independent B cell origins, were obtained. One family represented the majority of VHH family members that strongly bound to hIL-6 as determined by ELISA; therefore, multiple variants of this family were also sequenced. The anti-hIL-6 VHH coding DNA of selected VHHs was re-cloned into E. coli expression vectors and the anti-hIL-6 VHH proteins were expressed and purified using standard methods. The purified anti-hIL-6 VHHs were subjected to dilution ELISA analysis to assess their apparent affinities for binding to hIL-6. […] (See, e.g., Mukherjee, J., et al., 2012 PLoS ONE, 7, e299411). The EC₅₀ value of JYK-D12 for binding hTL-6 as determined by ELISA was about 0.4 nM.
Maxisorp ELISA plates (Nunc; Thermo Fisher USA) coated with recombinantly produced hIL-6 protein (0.5-5 μg/ml) overnight at 4° C. were used for immuno-binding assays (ELISA). Plates were washed 3 times with 1×PBS+0.1% Tween, followed by washing 3 times with 1×PBS. Washed plates were blocked (4-5% non-fat dry milk in 1×PBS+0.1% Tween) for 1 hour at room temperature (RT) with rocking. Serially diluted (1:5) hIL-6 VHH binding molecules targeting hIL-6, diluted in blocking solution, were incubated for 1 hour at RT with rocking and washed as above. […]

Binder | complete neutralization, 7TD1 cell proliferation (neutralization) assay [2] | further results
JYK-D12/JYK-D12 homodimer (VHH, One polypeptide with two JYK-D12 units; also called VCR-108) QVQLVESGGGLVQPGGSLGLSCAASGFTLAYYGIGWFRQAPGKEREGVACISSSDLSTYYADSVKGRFTISRDNAKDTVYLQMNSLKPEDTAVYYCAAGTWDLKFGYSRSNCVRSYEYDYWGQGTQVTVSSGGGGSGGGGSGGGGSQVQLVESGGGLVQPGGSLGLSCAASGFTLAYYGIGWFRQAPGKEREGVACISSSDLSTYYADSVKGRFTISRDNAKDTVYLQMNSLKPEDTAVYYCAAGTWDLKFGYSRSNCVRSYEYDYWGQGTQVTVSS | – | binding result [1]: binds; effective dose against Tocilizumab, in vivo neutralization assay [2]: 1000 fold
hIL-6-binding VHH JYK-A1 (Trx/JYK-A1/E) (VHH, not shown: large carriers) VHH: QLQLAETGGGLVQPGGSLRLSCAASGFTLDYYAVGWFRQAPGKEREGISCISSSDLKTYYADSVKGRFTISRDYAKSTVSLQMNSLKPEDTGVYYCAAGTWDLKFGYNISACVGSYEYDYWDQGTQVTVSS | 0.0247 µg/mL | –
hIL-6-binding VHH JYK-A9 (Trx/JYK-A9/E) (VHH, not shown: large carriers) VHH: QVQLVESGGGLVQAGDSLTLSCAASGRPFSSFAMGWFRQAPGKEREFVAAITWSRGTTHYADSVKGRFTISGDNAKNTVFLQMNSLKPEDTAVYYCAAADGWKVVSTASPAYDYWGQGTQVTVSS | 2 µg/mL | –
hIL-6-binding VHH JYK-D12 (Trx/JYK-D12/E) (VHH, Expressed in E. coli as Trx/VHH/E fusion; also called JYK-D12 sh.ab1; expression vector JYR-3; not shown: Trx fusion partner of the construct Trx/JYK-D12/E) VHH: QLQLVESGGGLVQPGGSLGLSCAASGFTLAYYGIGWFRQAPGKEREGVACISSSDLSTYYADSVKGRFTISRDNAKDTVYLQMNSLKPEDTAVYYCAAGTWDLKFGYSRSNCVRSYEYDYWGQGTQVTVSS | 0.0009 µg/mL | EC50 [3]: ~0.4 nM; ED50, 7TD1 cell proliferation (neutralization) assay [2]: < 0.3 ng/mL
hIL-6-binding VHH JYK-H9 (Trx/JYK-H9/E) (VHH, not shown: large carriers) VHH: QLQLVETGGGLVQPGGSLRLSCAASGFTLDYYAIGWFRQAPGKEREGVSCLSSSDRSTYYVDSVKGRFTISRDDDKNTAYLQMNSLKPEDTATYYCAAGTWDLKWGYNISACVGSYEYDYWGQGTQVTVSS | 0.0027 µg/mL | –
